Data published in PMC9449809 (Frontiers in Immunology, 2022).

Target: SARS-CoV-2 spike protein receptor-binding domain, Wuhan-Hu-1 sequence (SARS-CoV-2, UniProt P0DTC2)
Test: ELISA
Settings: both partners purified

Binder	binding result
monoclonal antibody REGN10933 (casirivimab) (antibody, V domains shown) VH: QVQLVESGGGLVKPGGSLRLSCAASGFTFSDYYMSWIRQAPGKGLEWVSYITYSGSTIYYADSVKGRFTISRDNAKSSLYLQMNSLRAEDTAVYYCARDRGTTMVPFDYWGQGTLVTVSS VL: DIQMTQSPSSLSASVGDRVTITCQASQDITNYLNWYQQKPGKAPKLLIYAASNLETGVPSRFSGSGSGTDFTFTISGLQPEDIATYYCQQYDNLPLTFGGGTKVEIK	binds
monoclonal antibody REGN10987 (imdevimab) (antibody, V domains shown) VH: QVQLVESGGGVVQPGRSLRLSCAASGFTFSNYAMYWVRQAPGKGLEWVAVISYDGSNKYYADSVKGRFTISRDNSKNTLYLQMNSLRTEDTAVYYCASGSDYGDYLLVYWGQGTLVTVSS VL: QSALTQPASVSGSPGQSITISCTGTSSDVGGYNYVSWYQQHPGKAPKLMIYDVSKRPSGVSNRFSGSKSGNTASLTISGLQSEDEADYYCNSLTSISTWVFGGGTKLTVL	binds
